Measurements from PMC6522730, “NUDIX hydrolases with inorganic polyphosphate exo- and endopolyphosphatase activities in the glycosome, cytosol and nucleus of Trypanosoma brucei” (Bioscience Reports, 2019).

Assays:
[1] = substrate: Nc1ncnc2c1ncn2[C@@H]1O[C@H](COP(=O)(O)OP(=O)(O)O)[C@@H](O)[C@H]1O; test: Pi release, malachite green assay; type: biochemical, Trypanosoma brucei; details: pH 8.0, 37°C, 6 mM MgCl2, 50 mM NaCl, 40 mM Hepes, 10 min
Text: (§1) Pi release, malachite green assay on TbNH2

[2] = substrate: Nc1ncnc2c1ncn2[C@@H]1O[C@H](COP(=O)(O)OP(=O)(O)OP(=O)(O)O)[C@@H](O)[C@H]1O; test: Pi release, malachite green assay; type: biochemical, Trypanosoma brucei; details: pH 8.0, 37°C, 6 mM MgCl2, 50 mM NaCl, 40 mM Hepes, 10 min
Text: as §1

B1: TbNH2 (Trypanosoma brucei brucei TREU927) (protein)
chain: MYRKNVCVVIFNEDLNFLACQRIHEDKFQFVQGGVEEGDADIIRAAYREVHEEVGLFPEDLRLIGEIMPPSGDPHEFRYILHEGANLRHFGYVGQQQRLFLFYTPSSTIQRVRLVPPKGSVAKQEFSHVEWLPIDEIIERCPKEKQHIFVAVSKVAIPMAKAFLKTRSSI
notes: full-length ORF in pET32 Ek/LIC (N-terminal thioredoxin/His tag), E. coli BL21-CodonPlus (DE3), nickel column
[1]
  Km: 46.5 ± 6.3 µM
  Vmax: 0.0056 µmol/min/mg
  kcat/Km: 270000 M⁻¹ s⁻¹
[2]
  Km: 78.1 ± 16.3 µM
  Vmax: 0.0102 µmol/min/mg
  kcat/Km: 290000 M⁻¹ s⁻¹
